Results from publication PMC8078012 (Cell systems, 2020).

Molecular target: MBP-GSK3β-HA-His (human, UniProt P49841 1-420, phosphotyrosine at 216 (activation loop))
Assay: BLI

MBP-GSK3β-HA-His, sequence (P49841 whole entry): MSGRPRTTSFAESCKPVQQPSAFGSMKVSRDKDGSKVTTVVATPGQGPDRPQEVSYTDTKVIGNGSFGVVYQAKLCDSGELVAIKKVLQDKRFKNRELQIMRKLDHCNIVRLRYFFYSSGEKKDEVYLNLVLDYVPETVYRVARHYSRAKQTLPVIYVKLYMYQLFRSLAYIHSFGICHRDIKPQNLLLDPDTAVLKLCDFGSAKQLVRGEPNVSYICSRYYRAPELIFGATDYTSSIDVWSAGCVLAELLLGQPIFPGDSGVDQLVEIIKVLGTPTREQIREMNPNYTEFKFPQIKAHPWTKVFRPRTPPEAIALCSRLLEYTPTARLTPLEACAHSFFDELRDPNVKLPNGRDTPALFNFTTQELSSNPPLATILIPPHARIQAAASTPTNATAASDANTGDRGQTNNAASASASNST

Kd: 16 nM
B1: MBP-Axin_(384-518)-His (miniAxin) (domain or fragment, human, UniProt O15169-2 384-518, looked up)
chain: EPQKFAEELIHRLEAVQRTREAEEKLEERLKRVRMEEEGEDGDPSSGPPGPCHKLPPAPAWHHFPPRCVDMGCAGLRDAHEENPESILDEHVQRVLRTPGRQSPGPGHRSPDSGHVAKMPVALGGAASGHGKHVP
modifications: biotin (NHS-PEG4-biotin, molar coupling ratio 1:1) where it was immobilised (assay with GSK3β)
